Measurements as given in patent publication US20120270787A1 (GOVERNORS OF THE UNIVERSITY OF ALBERTA, published 2012).
One block for each binder: values may come before it. Where no end group is shown, it is not given here.

Biological target: T1, calcitonin receptor (human, UniProt P30988 25-474)
T1 sequence (looked up): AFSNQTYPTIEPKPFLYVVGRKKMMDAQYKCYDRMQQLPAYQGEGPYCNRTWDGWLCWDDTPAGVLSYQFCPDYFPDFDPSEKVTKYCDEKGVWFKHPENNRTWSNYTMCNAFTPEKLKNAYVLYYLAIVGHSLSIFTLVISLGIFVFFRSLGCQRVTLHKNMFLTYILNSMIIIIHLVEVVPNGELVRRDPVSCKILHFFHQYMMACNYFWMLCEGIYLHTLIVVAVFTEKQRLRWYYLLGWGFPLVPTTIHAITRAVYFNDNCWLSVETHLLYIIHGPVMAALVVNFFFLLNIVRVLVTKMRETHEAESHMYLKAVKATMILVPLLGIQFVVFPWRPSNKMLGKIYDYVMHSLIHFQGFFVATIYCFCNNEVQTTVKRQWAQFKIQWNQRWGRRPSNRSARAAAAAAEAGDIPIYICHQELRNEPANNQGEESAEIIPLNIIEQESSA
Experiment: cell-based or functional assay

intracellular cAMP in T47D cells, % of native sCT activity, at 50 nM: 98%
intracellular cAMP in T47D cells, % of native sCT activity, at 100 nM: 115%
intracellular cAMP in T47D cells, % of native sCT activity, at 10 mM (so in the source): 94.3%
B1: sCT-SMCC (peptide)
peptide: CSNLSTCVLGKLSQELHKLQTYPRTNTGSGTP
modifications: ends and bridges not checked; also: mixture of mono-, di- and tri-substituted: SMCC group in amide bond on Lys11, Lys18 and/or N-terminus

intracellular cAMP in T47D cells, % of native sCT activity, at 50 nM: 102%
intracellular cAMP in T47D cells, % of native sCT activity, at 100 nM: 99.8%
intracellular cAMP in T47D cells, % of native sCT activity, at 10 mM (so in the source): 92.8%
B2: sCT-BP (peptide)
peptide: B1 peptide
modifications: ends and bridges not checked; also: mixture: SMCC linker carrying thiol bisphosphonate on Lys11, Lys18 and/or N-terminus (2-3 SMCC, 1-3 BP)
